In the DeepSol protein solubility set:

Experiment: soluble on expression in E. coli; label from the status in PepcDB or PDB records

Soluble on expression in E. coli, not soluble:
MHIESPIKRRQSTRIYVGNVPIGDGAPIAVQSMTNTRTTDVDATVAQIKSLEKVGADIVRVSVPTMDAAEAFKVIKQQVSVPLVADIHFDYRIALQVAEYGVDCLRINPGNIGNEQRIRSVVDCARDKNIPIRIGVNGGSLEKDIQAKYKEPTAEALLESAMRHVDILDRLNFDQFKVSVKASDVFLAVDSYRLLAKQIAQPLHLGITEAGGARAGSVKSAVGLGMLLSEGIGDTLRISLAADPVEEIKVGFDILKSLRIRSRGINFIACPTCSRQEFDVIATVNELEQRLEDLITPMDVSLIGCVVNGPGEAEVSHMGIAGSNRKSAFYEDGVRQKERFDNDNIVDQLEAKIRAKAATLSKENQIDINQID, MHIQRKSTMSKCSADETPVCCCMDVGTIMDNSDCTASYSRVFANRAEAEQTLAALTEKARSVESEPCKITPTFTEESDGVRLDIDFTFACEAEMLIFQLGLR, MHPTAAALIRTLGLAPHPEGGHYRRVYASTRQVLDDSGAPPRPALTAIRFLLCAGEASRWHRVDAEECWHWQQGAPLELLIFDEASGQLRREVLDAAERGDAMHVVPAGCWQAARSLGDFTLVGCTVSPGFVWEGFALLEDGSPLAAQLAALVAEGAAPEPPTLPLEHHHHHH, MHRYLWQQADGKRHVYDTTRHRIQAEHSFTALCGETVIPRTERGDLTAGLWFDGECPVCTIALAKALGWPMRELADLAHRFTWSPELLARLAEILHCTSGEVAELTGARTVDT, MHTVVMTKGVPDFREGQVSFDEDGHLERGKTPTVMNPNDKHALRAAFQTKVRNGGHVSLMSMGPPGYKEVLQEGMRDVYADDLYLLSDREMGAADTWATAMTVATGLQNLEEQPDLVFAGFKTADGETGHTGPQTCWCLDWPIITHVLSLDIDEDAGTVRAKRLVDGDISEIETVEAPMPCFIVADPEFEPTYRKASHRLKHKDLREETQERATEYEEYLTIWDHEGLNLDPDYIGLDGSPTIVAGVDPIPKAPSEREATVIEADEREALEPVLDELTPYAAGD, MIAITGATGQLGQHVIENLLKTTPASHLVAIVRNPKKAAPLSQRGIAVRQADYANEAALTTALQGVDKLLLISSSEVGQRTAQHRNVIQAAIAAKVKFIAYTSLLHADKSPLALADEHIETEKMLAESGIPHTLLRNGWYTENYLASVPAALKHGVFIGAAGEGKIASAMRADYAAAAARVIREEGHAGNVYELAGDDAWTLSQLADELTHQSGKKIVYQNLSEVDFAAALKGAGLPDGLADMLANSDAGAAKGGLFDDSHTLRKLIGRPTTTLTESLRSVL, MICTLLVPVLGSFELVGQSIKDALAEYTLTDIMNNNQFAGIEFGEAEDGFPAFRFLQTADVKSPYRMLLPEKLYEFAILITFRQSSLKGGYLFSVVNPLDTVVQLGVHLSPVVKNSYNVSLVYTQADQNIGRKLASFGVAHVPDKWNSIALQVLSDKVSFYYDCELRNTTLVTREPIELVFDSASTLYIGQAGSIIGGKFEVSSGGGQFDYAFDLQSIVGELEHHHHHH, MIDETAEEIREMRTHSSSVVAVKAARALEALLDSDYPTVAAYVRALERNSTALRRANPSHASLVTTQREVVSRVRDADPASIPEAQEVTAAAIDDVVARVNMGKHDAAAATAEHITDGQTLLTHDYSSTVLEAIELAAQDGAHLDVFVTEARPRHLGRKTVRALAQLDRVDPTLIVDGAAGHVLDDCDRVLLGMDCIVADTYYNRVGTYPIVAAAADAGTPVTVAGSAAKLVADGFQFTNDFRDTSEVIREPPAGFTVENPAYDATPTRLLDAVVTEDGRRTEFPLESLEHHHHHH

Soluble on expression in E. coli, soluble:
MHKVQRSVLVPYSAAQMFDLVADVEKYPEFMPWCGGAEVHSRSEHGMQASILISFAGLKQRFSTRNTHDYPQRIDLELVDGPFSMLVGHWVFQPLAEDACKVLFTLEYAFSNRALEMVVGPVFNRIAASFIDSFTKRAQAKYGEAAALEHHHHHH, MHKVSATLLIIDDDEVVRESLAAYLEDSNFKVLQALNGLQGLQIFESEQPDLVICDLRMPQIDGLELIRRIRQTASETPIIVLSGAGVMSDAVEALRLGAADYLIKPLEDLAVLEHSVRRALDRAYLRVENQRYRDKLEAANRELQASLNLLQEDQNAGRQVQMNMLPVTPWSIEGLEFSHRIIPSLYLSGDFVDYFRVDERRVAFYLADVSGHGASSAFVTVLLKFMTTRLLYESRRNGTLPEFKPSEVLAHINRGLINTKLGKHVTMLGGVIDLEKNSLTYSIGGHLPLPVLFVEGQAGYLEGRGLPVGLFDDATYDDRVMELPPSFSLSLFSDGILDVLPGATLKEKEASLPEQVAAAGGTLDGLRQVFGLANLAEMPDDIALLVLSRNLA, MHLYSSDFPLMMDEKELYEKWMRTVEMLKAEGIIRSKEVERAFLKYPRYLSVEDKYKKYAHIDEPLPIPAGQTVSAPHMVAIMLEIANLKPGMNILEVGTGSGWNAALISEIVKTDVYTIERIPELVEFAKRNLERAGVKNVHVILGDGSKGFPPKAPYDVIIVTAGAPKIPEPLIEQLKIGGKLIIPVGSYHLWQELLEVRKTKDGIKIKNHGGVAFVPLIGEYGWKEHHHHHH, MHNMFPALTKTLSLQGYKIINSQTGSAAWSCGRRWFSSDKDDHDDVVTRIKIAPIKRTNEPLDKKRARLIYQSRKRGILETDLLLSGFAAKYLKKMNEEELEEYDSLLNELDWDIYYWATKNFKTSPLPDKWANSKLLKQLQEFSENKEKEILSMPDLSKYQ, MHQVISATTNPAKIQAILQAFEEIFGEGSCHITPVAVESGVPEQPFGSEETRAGARNRVDNARRLHPQADFWVAIEAGIDDDATFSWVVIDNGVQRGEARSATLPLPAVILDRVRQGEALGPVMSQYTGIDEIGRKEGAIGVFTAGKLTRSSVYYQAVILALSPFHNAVYR, MHRLRNLREDVSDGSLGHGGGGLMYDVVVVGAGPAGSMAAKTAAEQGLKVLLVEKRQEIGTPVRCAEGISRESIEKFFEVDKKWIAAEVTGAKIYAPNKTEIVMSEEMAGNEVGYVLERKIFDRHVARLAAKAGAEVYVKTAMVDFERKDGKVKVKLRRLGEDWEVETKILIGADGVESKIGRKAGIIKTLKLNEVESCAQYLMTGLDIDESYTYFYLGRELAPGGYAWIFPKGNGSANVGIGVLPKMAERTAKEYLDAFIEKEGIEGKIVEFVAGAVPVYGEIETAVADNIMLAGDAAYHADPITGGGIANALSAGYYAGKVAAEAVQKNDFSADFLRRYDELWKNDFGKKLRRNKKLQLKFIDMDDALLNKLAGAIAGKNLREMSVAAIVKELLKAHPKLLWDLKDLFLEHHHHHH, MHTLEQLRAGALTGIQALKLSENLTEVPAEVFQLADTLEILDLSGNRLHSLPQEMACLTRLRILFLSDNDFTIFPEVLKELKQLDMLGIKANNIQVIAEDAIPVSLRWLILTDNCIEALPVSIGRCTKLQKVMLAGNQLSGLPDELAACRNIELLRISANNMHTFPEVVKQLPRLAWLAYSSNPFQVNRSSFNALPVIAWENVALMEQLGAGASGIIYKARLNTGKSPEDVAVKVFKGAVTSDGLPEDEMTACMQAGRNSHLVSVLGVIGGHPEGMHGLVMELIPAEYKNLGRPPSFVTCTRDTFAAGTRFTAQQMLLILKGVAEAAKQLHDNGIMHGDLYAHNTLINEKYHSLFGDFGAATLYDKNNRDEAFFLERLDVRAFGCLADDLLQYSVCTKEDEWCLETLKRLSAGCMNEEPDKRPAFNTIVYELQLLQNTHLEHHHHHH, MIAITGASGQLGRLVIAQLLEKVPASDIVALVRDVNKVADLSAKGVQVKAADYNQPEALAFALQGVDKVLLISSSEVGQRAAQHRNVIEAAVKAGVKLVAYTSLLHADKSPLALAEEHRQTEALLKDSGLPHVLLRNGWYTENYAASIPAALEHGVFIGSAGEGKITSATREDFAAAAVAVLTQEGQAGKVYELAGDEPYTLVELAAEISKQSGKSIGYQNLSGAEFTAALVSAGLPDVFAQIIADSDVGASKGGLFDGGKHLSQLIGRPTTPLSAVVKATLK
